Results taken from patent publication US20030235860A1, “Interactions between AR, ER, TR2, and TR4” (priority 1999, published 2003).
Values belong to the molecule of their own block, whether it stands above or below them.

Biological target: T1, GST-TR4 (Homo sapiens, UniProt P49116)
T1 construct: which used the full length of TR4 containing AF-1; made in house
T1 sequence (P49116 1-615 isoform P49116-2 N175S/W419R/A428G/K503N/L504W/A613V): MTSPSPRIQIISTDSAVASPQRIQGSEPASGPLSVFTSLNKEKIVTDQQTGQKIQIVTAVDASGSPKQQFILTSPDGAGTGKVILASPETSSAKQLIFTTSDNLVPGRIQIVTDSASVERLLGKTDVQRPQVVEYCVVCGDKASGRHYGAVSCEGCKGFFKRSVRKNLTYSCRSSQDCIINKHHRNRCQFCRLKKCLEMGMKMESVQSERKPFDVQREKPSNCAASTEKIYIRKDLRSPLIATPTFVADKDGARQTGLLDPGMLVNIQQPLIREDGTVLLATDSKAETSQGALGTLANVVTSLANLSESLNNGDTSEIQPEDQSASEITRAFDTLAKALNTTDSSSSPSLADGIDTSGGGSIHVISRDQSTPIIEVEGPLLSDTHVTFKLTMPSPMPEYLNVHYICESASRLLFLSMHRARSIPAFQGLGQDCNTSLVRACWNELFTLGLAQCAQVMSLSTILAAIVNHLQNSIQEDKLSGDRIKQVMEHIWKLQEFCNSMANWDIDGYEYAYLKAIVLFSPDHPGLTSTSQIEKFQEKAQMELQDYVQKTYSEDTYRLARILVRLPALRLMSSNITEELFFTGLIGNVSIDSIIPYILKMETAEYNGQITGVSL
Experiment: GST-TR4 pull-down assay
Type: binding
Conditions: for Interaction with GST-TR4 fusion protein: [35S]-methionine labeled proteins, absence of E2, Example 3; for Interaction with GST-TR4 in pull-down assay: in vitro translated 35S methionine-labeled proteins, Example 1
Method: GST-TR4 fusion protein and GST control protein were purified as instructed by the manufacturer (Pharmacia). […] of in vitro translated 35S methionine-labeled proteins were used to perform a pull-down assay as described previously. Cacailles, et al., EMBO 14, 3741-3751 (1995).
Using a GAL4-TR4 fusion protein as bait, the yeast two-hybrid system was used to isolate several potential TR4 associated proteins. […] A GST-TR4 fusion protein pull-down assay was performed to further confirm the result. GST-TR4 fusion protein and GST control protein were purified as instructed by the manufacturer (Pharmacia).
A GST pull-down assay was performed according to the methods described previously (Lee, Y. et al. (1999) Proc. Natl. Acad Sci. USA. 96(26) 14724-9).
Briefly, the GST fusion protein and GST control protein were expressed in an Escherichia coli strain BL21 (DE3) pLys bacterial culture and recovered on glutathione-Sepharose-4B beads. Equal amounts of GST fusion protein bound to glutathione-Sepharose-4B beads were incubated for 2 h at 4° C. with 5 μl of in vitro translated [^35S]methionine-labeled protein in a total volume of 100 µl of incubation buffer (20 mM HEPES/pH 7.9, 150 mM KCl, 5 mM MgCl2, 0.5 mM EDTA, 0.5 mM dithiothreitol, 0.1% Nonidet P-40, 1 mg/ml bovine serum albumin, and 10% glycerol), and protease inhibitor mixture (1 mM phenylmethylsulfonyl fluoride, 1 μg/ml aprotinin, leupeptin, and pepstatin). The beads were then washed three times with wash buffer (20 mM Tris/pH 8.0, 100 mM NaCl, 1 mM EDTA, and 0.5% Nonidet P-40), boiled in 2×SDS sample buffer, loaded onto SDS-polyacrylamide gels, and visualized by autoradiography.

Molecule: AR: androgen receptor, SEQ ID NO:31
Interaction with GST-TR4 fusion protein: binds well
Interaction with GST-TR4 in pull-down assay: physically interact

Interaction with GST-TR4 fusion protein: unable to interact
Interaction with GST-TR4 in pull-down assay: no interaction
Molecule: RXR: retinoid X receptor, another member of the steroid receptor superfamily

B1: TR2: human testicular orphan nuclear receptor 2, 603 amino acids (protein, UniProt P13056 1-603, looked up)
chain: MATIEEIAHQIIEQQMGEIVTEQQTGQKIQIVTALDHNTQGKQFILTNHDGSTPSKVILARQDSTPGKVFLTTPDAAGVNQLFFTTPDLSAQHLQLLTDNSPDQGPNKVFDLCVVCGDKASGRHYGAVTCEGCKGFFKRSIRKNLVYSCRGSKDCIINKHHRNRCQYCRLQRCIAFGMKQDSVQCERKPIEVSREKSSNCAASTEKIYIRKDLRSPLTATPTFVTDSESTRSTGLLDSGMFMNIHPSGVKTESAVLMTSDKAESCQGDLSTLANVVTSLANLGKTKDLSQNSNEMSMIESLSNDDTSLCEFQEMQTNGDVSRAFDTLAKALNPGESTACQSSVAGMEGSVHLITGDSSINYTEKEGPLLSDSHVAFRLTMPSPMPEYLNVHYIGESASRLLFLSMHWALSIPSFQALGQENSISLVKAYWNELFTLGLAQCWQVMNVATILATFVNCLHNSLQQDKMSTERRKLLMEHIFKLQEFCNSMVKLCIDGYEYAYLKAIVLFSPDHPSLENMEQIEKFQEKAYVEFQDYITKTYPDDTYRLSRLLLRLPALRLMNATITEELFFKGLIGNIRIDSVIPHILKMEPADYNSQIIGHSI
modifications: full-length
notes: human testicular orphan nuclear receptor 2, 603 amino acids
Interaction with GST-TR4 in pull-down assay: physically interact
